Test results taken from patent publication US8158851B2, “Transgenic high tryptophan plants” (Monsanto Technology LLC, priority 2002, dated 2012).
Residue numbers refer to the chain shown, from its start. Where two headings read alike, the source gives them in different places.

B1: F298W (protein)
chain: MVTIIQDDGAETYETKGGIQVSRKRRPTDYANAIDNYIEKLDSHRGAVFSSNYEYPGRYTRWDTAIVDPPLGISCFGRKMWIEAYNGRGEVLLDFITEKLKATPDLTLGASSTRRLDLTVNEPDRVFTEEERSKIPTVFTALRAIVDLFYSSADSAIGLFGAFGYDLAFQFDAIKLSLARPEDQRDMVLFLPDEILVVDHYSAKAWIDRYDFEKDGMTTDGKSSDITPDPFKTTDTIPPKGDHRPGEYSELVVKAKESFRRGDLFEVVPGQKFMERCESNPSAISRRLKAINPSPYSWFINLGDQEYLVGASPEMFVRVSGRRIETCPISGTIKRGDDPIADSEQILKLLNSKKDESELTMCSDVDRNDKSRVCEPGSVKVIGRRQIEMYSRLIHTVDHIEGRLRDDMDAFDGFLSHAWAVTVTGAPKLWAMRFIEGHEKSPRAWYGGAIGMVGFNGDMNTGLTLRTIRIKDGIAEVRAGATLLNDSNPQEEEAETELKASAMISAIRDAKGTNSAATKRDAAKVGTGVKILLVDHEDSFVHTLANYFRQTGATVSTVRSPVAADVFDRFQPDLVVLSPGPGSPTDFDCKATIKAARARDLPIFGVCLGLQALAEAYGGELRQLAVPMHGKPSRIRVLEPGLVFSGLGKEVTVGRYHSIFADPATLPRDFIITAESEDGTIMGIEHAKEPVAAVQFHPESIMTLGQDAGMRMIENVVVHLTRKAKTKAA
modifications: An A. tumefaciens mutant.
B2: S51F (protein)
chain: B1 chain with S51F, W298F
modifications: An A. tumefaciens mutant.

Columns and labels:
[1] = tested on: soy seed; assay: Free amino acid analysis of soy seed (tryptophan content); assay type: in vivo, Glycine max; conditions: R1 soy seeds expressing the mutant protein
Protocol: Amino Acid Extraction: About 50 mg of crushed soy seed (5 mg of Arabidopsis) material was placed in each centrifuge vial. One milliliter of 5% trichloroacetic acid was added to each sample (100 μl for Arabidopsis). The samples were vortexed, and allowed to sit, with agitation, at room temperature for 15 min. They were then microcentrifuged for 15 min at 14000 rpm. Some of the supernatant was then removed, placed in a HPLC vial and sealed. Samples were kept at 4° C. in the analysis queue.
Amino Acid Analysis: The reagents utilized for amino acid analysis included the OPA reagent (o-phthalaldehyde and 3-mercaptopropionic acid in borate buffer (Hewlett-Packard, PN 5061-3335)) where the borate buffer (0.4 N in water, pH 10.2). The analysis was performed using the Agilent 1100 series HPLC system as described in the Agilent Technical Publication, “Amino Acid Analysis Using Zorbax Eclipse-AAA Columns and the Agilent 1100 HPLC”, Mar. 17, 2000. First, 0.5 μl of the sample was derivatized with 2.5 μl of OPA reagent in 10 μl of borate buffer. Second, the derivative is injected onto a Eclipse XDB-C18 5 μm, 4.6×150 mm column using a flow rate of 1.2 ml/min. Amino acid concentrations were measured using fluorescence: excitation at 340 nm, emission at 450 nm. Elution was with a gradient of HPLC Buffers A and B according to Table A, where HPLC Buffer A was 40 mM Na2HPO4, pH=7.8 and HPLC Buffer B was 9:9:2::Methanol:Acetonitrile:Water.
Amino acid standards were prepared from the dry chemicals, using all amino acids of interest. Proline analysis required an additional derivatization step with 9-fluorenylmethyl-chloroformate (FMOC). Amino acid standards were also sometimes purchased in concentrations ranging from 0 to 100 μg/ml. Samples were reported in μg/g of seed powder.
Mature R1 seed is produced and analyzed for free amino acid content using fluorescence detection as described in Agilent Technologies Technical Bulletin REV14. Five seeds are chosen for single seed analysis from each event. […] The highest levels of tryptophan have a negative impact on germination.

[2] = tested on: Agro AS; assay: Agro AS enzyme assay, HPLC end-point, desalted extracts of individual soybean seeds; assay type: biochemical, Agrobacterium tumefaciens; conditions: R1 soy seeds carrying the mutant allele
Protocol: The specific activity of anthranilate synthase was measured in eleven transformation events carrying the pMON58120 construct. Individual soybean immature seeds were analyzed using an HPLC-based end-point assay based on the method described by C. Paulsen (J. Chromatogr., 547:155-160 (1991)). Briefly, desalted extracts were generated from individual seeds in grinding buffer (100 mM Tris pH7.5, 10% glycerol, 1 mM EDTA, 1 mM DTT) and incubated for 30 min with reaction buffer (100 mM tris pH 7.5, 1 mM chorismate, 20 mM glutamine, and 10 mM MgCl2). Agro AS activity was measured in the presence or absence of 25 mM trp. The reaction was stopped with phosphoric acid and the amount of anthranilate formed was quantified by HPLC using a fluorescence detector set at 340 nm/excitation and 410 nm/emission.

[3] = tested on: Agrobacterium tumefaciens AS; assay: Anthranilate synthase enzyme assay and kinetic analysis of purified enzymes; assay type: biochemical; conditions: for Km: 25° C.
Protocol: Agrobacterium tumefaciens AS wild type and mutant enzymes were expressed in E. coli as described in Example 1. The purification of all the Agrobacterium tumefaciens AS enzymes, including wild type and mutants thereof, was performed at 4° C. The cells (approximate wet weight of 1 g) were suspended in 20 ml of purification buffer (50 mM potassium phosphate, pH 7.3, 10 mM MgCl2, 10 mM 2-mercaptoethanol, 10% glycerol) and lysed by ultrasonication (Branson sonifier Cell Disruptor, W185). Supernatant was collected after centrifugation of the homogenate at 20,000×g for 15 min. The supernatant was subjected to ammonium sulfate fractionation (30 to 65% saturation). The precipitate was collected after centrifugation at 20,000×g for 15 min and dissolved in 3 ml of the purification buffer and then loaded as a whole on an Econo-Pac 10DG desalting column, pre-equilibrated with the same buffer. Fractions containing the enzyme were detected by the developed assay and pooled. The pooled enzyme (4.3 mls) was loaded on a 10 ml DEAF Sephacel (Pharmacia Biotech) column (1.5×7.5 cm) equilibrated with the same buffer. The column was washed with 30 ml of the purification buffer and the enzyme was eluted with 30 ml of 50 mM NaCl in the same buffer. Fractions containing high AS activity were pooled and precipitated by 65% ammonium sulfate saturation and isolated and desalted as above. Fractions containing the enzyme were pooled and stored at −80° C.
The standard assay for Agrobacterium tumefaciens AS was performed at 25° C. in an assay buffer containing 100 mM potassium phosphate, pH 7.0, 10 mM MgCl2, 1 mM dithiothreitol, 200 μM chorismate and 10 mM L-glutamine. The reaction was started by adding 30 μl of enzyme to the reaction mixture and mixing. The formation of anthranilate was directly monitored by the absorbance increase at 320 m for 3 minutes. Initial rate of reaction was calculated as unit absorbance increase per second based on the slope of the absorbance change over the reaction time. Km for chorismate (Km^Cho) was determined in the total volume of 1 ml assay buffer containing 100 mM potassium phosphate, pH 7.0, 10 mM MgCl2, 1 mM dithiothreitol with 10 mM L-glutamine and varying the concentration of chorismate between 2.5-100 μM chorismate. The Km for glutamine (Km^Gln) was determined in the total volume of 1 ml assay buffer containing 100 mM potassium phosphate, pH 7.0, 10 mM MgCl2, 1 mM dithiothreitol with 200 μM chorismate and varying the concentration of L-glutamine between 0.1-2 mM L-glutamine. IC50 for tryptophan (IC50^Trp) was determined with in the total volume of 1 ml assay buffer containing 100 mM potassium phosphate, pH 7.0, 10 mM MgCl2, 1 mM dithiothreitol, 10 mM L-glutamine, 200 μM chorismate and varying the concentration of L-tryptophan between 0.1-10 mM L-tryptophan. Kinetic parameters and IC50 of AS were calculated after fitting the data to a non-linear regression program (GraFit).

Molecule | amounts of tryptophan [1] | tryptophan-resistant anthranilate synthase activity [2] | Km ([3]; pH 7.0, 200 μM chorismate, L-glutamine varied, read-out: Km^Gln) | Km ([3]; pH 7.0, 10 mM L-glutamine, chorismate varied, read-out: Km^Cho) | IC50 ([3]; inhibition by L-tryptophan, 10 mM L-glutamine, 200 μM chorismate) | kcat ([3]; purified enzyme from E. coli)
B1 | very high amounts of tryptophan | Very high levels | 140 µM | 18 µM | 450 µM | 0.44 s⁻¹
B2 | very high amounts of tryptophan | Very high levels |  |  |  | 
